Data: patent US12043671B2, “Antibodies targeting an amphiregulin-derived cell surface neo-epitope” (Gundersen Lutheran Medical Foundation, Inc., priority 2021, dated 2024)

Target: T1, cleaved AREG (Homo sapiens, UniProt P15514)
T1 construct: tissue US Biomax Inc; host or cells: breast disease spectrum tissue micro-array (formalin-fixed, paraffin-embedded)
T1 sequence (P15514 188-252): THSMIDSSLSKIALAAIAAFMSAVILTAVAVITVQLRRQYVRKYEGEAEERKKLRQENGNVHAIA
Assay: Immunohistochemistry on breast tumor tissue micro-array
Conditions: for proportion of tumors exhibiting medium/high intensity staining: 10 μg/mL
Experimental: A breast disease spectrum tissue micro-array was purchased from US Biomax Inc. (Derwood, MD, USA). The slides were deparaffinized in xylene and rehydrated by serial incubations in graded ethanol and then in water in a Histo-Tek® SL Slide Stainer (Sakura Finetek USA, Inc., Torrance, CA, USA). Antigen retrieval was performed in a steamer by boiling slides in a container of citrate buffer (pH 6.0) for 20 min, which was then removed for 15 min of cooling on the benchtop. Slides were washed in 1×Wash buffer (Dako Agilent, Santa Clara, CA, USA) and endogenous peroxidase was quenched by incubating with Dako Dual Endogenous Enzyme Block (S2003) for 10 min. Slides were washed in 1× Wash buffer, blocked (5% rabbit/10% goat serum in PBS), and immunostained with goat anti-AREG antibody (15 μg/mL; AF262, R&D Systems) or rabbit anti-cleaved AREG 1A3 antibody (10 μg/mL) overnight at 4° C. Slides were washed four times in 1× Wash buffer, followed by the incubation for 45 min at room temperature in 1:100 dilution of rabbit anti-goat immunoglobulins/HRP (Dako, P0160 or ready-to-use goat anti-rabbit HRP labeled polymer (Dako, K4003). The slides were washed twice in 1× Wash buffer and the color was developed with 3,3-diaminobenzidine tetrahydrochloride substrate chromogen system (K3468, DAKO, Santa Clara, CA, USA). Sections were washed with water and counterstained with hematoxylin, rinsed with water, dehydrated by serial ethanol washes to 100%, cleared and mounted in Permount (Thermo Fisher Scientific). The staining intensity was assessed semi-quantitatively using a four-point scale (negligible=0, low=1, medium=2, high=3) by two investigators working independently on blinded samples. Discordant scores were resolved by joint review.

cases with medium/high immunoreactivity (138 breast cancer specimens): 70%
proportion of tumors exhibiting medium/high intensity staining (ER-negative tumors (n=50)): 70%
proportion of tumors exhibiting medium/high intensity staining (ER-positive tumors (n=88)): 69.3%
B1: 1A3: Rabbit monoclonal IgG specific to cleaved AREG; VH SEQ ID NO: 3, VL SEQ ID NO: 4 (antibody, V domains shown)
VH: QSVKESEGRLVTPGTPLRLTCTVAGYSLSRYHMCWVRQAPGKGLEWIGMIGGSGRTDYASWAKGRFTISKTSTTVDLKITSPTTEDTATYFCSTVYTDSDGDFWGPGTLVTVSS
VL: AELDMTQTPSSKSVPVGGTVTINCQASESVYSNDRLAWFQQKPGQPPKLLIYYASTLASGVPSRFKGSGSGTQFTLTISDLECADAATYYCQSCYDMSSYGVAFGGGTELEIL
modifications: 1A3 antibody, Heavy chain; 1A3 antibody, Light chain
